{
  "source": "patent US20090022669A1",
  "about": "“COMPOSITIONS FOR PROTEIN DELIVERY VIA THE PULMONARY ROUTE” (VAPOTRONICS, INC., priority 2001, published 2009)",
  "key": {"[1]": {"assay": "Molecular assays (HPLC, mass spectrometry, isoelectric focusing, immunoassay) of recovered aerosol versus initial formulation", "assay_type": "physicochemical", "excerpt": "During testing, it was useful to ensure that the composition of the aerosol emanating from the device was the same in all discernable aspects as the formulation filled into the device."}, "[2]": {"assay": "Droplet size of the thermal inkjet aerosol measured by Malvern laser", "assay_type": "physicochemical", "settings": "hGH 2 mg/mL, 6% w/w PEG 3000, 0.1% w/v TWEEN 20, unbuffered"}, "[3]": {"test_system": "receptors introduced to the cells specific to the test protein", "assay": "Transgenic cell bioassay of recovered aerosol versus formulation before aerosolization", "assay_type": "cell-based", "settings": "hGH 2 mg/mL, 6% w/w PEG 3000, 0.1% w/v TWEEN 20; thermal inkjet, aerosol condensed and recovered; FIG. 1", "method": "Proteins were tested with a transgenic cell bioassays with receptors introduced to the cells specific to the test protein. These bioassays were appropriate for indicating the functional effectiveness of the protein. Molecular assays were performed to indicate the primary or tertiary structure of the molecule. Assays used included size exclusion high performance liquid chromatography, reverse phase high performance liquid chromatography, mass spectrometry, isoelectric focusing and immunoassay.\nEach protein was formulated at a concentration that was calculated to be of clinical significance such that the plume of aerosol contained the required amount of therapeutic. Humectant was added to the protein formulation which was filled into an inkjet cartridge and fired from the cartridge.\nResistor surfaces and nozzles were inspected by Scanning Electron Microscopy to establish the cleanliness of the surfaces and subsequently the effectiveness of the humectant and surfactant. When humectant and surfactant concentrations were suitable, the aerosol from the device was collected, analyzed, and compared with the solution before aerosolization.\nHuman growth hormone (hGH) was formulated at 2 mg/mL with 6% w/w PEG 3000 and 0.1% w/v TWEEN® 20. The formulation was unbuffered and no additional salts were added to the formulation. […]"}},
  "data": [
    {"compound": "CN1CCCC1c1cccnc1", "note": "(centres unmarked) [Nicotine, reference compound]", "values": [
      {"measurement": "comparison of solution during or after dosage (aerosolization)", "setting": "[1]; nicotine up to 50% w/w in water with 0.1% w/v TWEEN 20", "value": "no measurable difference"}
    ]},
    {"compound": "Human growth hormone", "values": [
      {"measurement": "HPLC comparison of formulation before and after aerosolization", "setting": "[1]; hGH 2 mg/mL, 6% w/w PEG 3000, 0.1% w/v TWEEN 20, thermal inkjet, aerosol condensed and recovered", "value": "no measurable difference"},
      {"measurement": "average droplet size of formulation aerosol", "setting": "[2]", "value": 8, "unit": "μm"},
      {"measurement": "bioassay comparison of formulation before and after aerosolization", "setting": "[3]", "value": "no measurable difference"}
    ]},
    {"compound": "Insulin", "values": [
      {"measurement": "reverse-phase HPLC comparison (retention time, peak shape) before, after recovered and after repeated aerosolization", "setting": "[1]; insulin 10 mg/mL, 6% w/v PEG 8000, 0.1% w/v TWEEN 80, thermal inkjet, FIG. 2", "value": "no measurable differences"}
    ]}
  ]
}
